Experimental data from patent publication US20240209076A1 (KODIAK SCIENCES, published 2024).

Target: T1, human IL-6 (human, UniProt P05231 30-212)
T1 construct: IL-6 flowed over captured antibodies
Test: SPR Biacore, supernatant Ab on Protein A chip, 37 C
Experimental: Antibodies were captured on a Protein A chip (GE) by injecting 1:20 cell supernatant dilutions at 10 μL/min for 60 seconds. […] The sensor chip was regenerated by a 60 seconds injection of 10 mM Glycine pH 1.7 at the flow rate of 50 μL/min. […] For this setup, 1 μg/mL of purified antibody was injected over a Protein A chip at 10 μL/min for 25 seconds. […] The sensor chip was regenerated by a 60 seconds injection of 10 mM Glycine pH 1.7 at flow rate of 50 μL/min. Data analysis for supernatant and purified samples were performed using BIAevaluation software (GE). All sensorgrams were double reference subtracted and fit using a 1:1 Langmuir binding model.

T1 sequence (P05231 30-212 limits assumed): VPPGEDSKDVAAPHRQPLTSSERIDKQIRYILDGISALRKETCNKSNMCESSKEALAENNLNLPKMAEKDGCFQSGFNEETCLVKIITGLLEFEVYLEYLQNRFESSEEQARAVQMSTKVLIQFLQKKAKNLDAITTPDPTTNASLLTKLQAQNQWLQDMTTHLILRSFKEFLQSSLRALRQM

Binder	Kd [nM]	koff [s⁻¹]	kon [M⁻¹ s⁻¹]
anti-IL-6 antibody, heavy chain I51E, G66D / light chain M32L, M50D, N52S, M88Q (antibody, IgG1, V domains shown, Full IgG1 (Expi293); VL = variant III) VH: EVQLVESGGGLVQPGGSLRLSCAASGFTFSPFAMSWVRQAPGKGLEWVAKESPGGSWTYYSDTVTDRFTFSLDTSKSTAYLQMNSLRAEDTAVYYCARQLWGYYALDIWGQGTLVTVSS VL: DIQLTQSPSSLSASVGDRVTITCSASISVSYLYWYQQKPGKAPKLLIYDDSSLASGVPSRFSGSGSGTDFTLTISSLQPEDFATYYCQQWSGYPYTFGQGTKVEIK	2.14	0.00196	914000
anti-IL-6 antibody, heavy chain S35E, G66D / light chain M32L, M50D, N52S, M88Q (antibody, IgG1, V domains shown, Full IgG1 (Expi293); VL = variant III) VH: EVQLVESGGGLVQPGGSLRLSCAASGFTFSPFAMEWVRQAPGKGLEWVAKISPGGSWTYYSDTVTDRFTFSLDTSKSTAYLQMNSLRAEDTAVYYCARQLWGYYALDIWGQGTLVTVSS VL: DIQLTQSPSSLSASVGDRVTITCSASISVSYLYWYQQKPGKAPKLLIYDDSSLASGVPSRFSGSGSGTDFTLTISSLQPEDFATYYCQQWSGYPYTFGQGTKVEIK	0.867	0.00189	2.18e+06
anti-IL-6 antibody, heavy chain I51V, G66D / light chain M32L, M50D, N52S, M88Q (antibody, IgG1, V domains shown, Full IgG1 (Expi293); VL = variant III) VH: EVQLVESGGGLVQPGGSLRLSCAASGFTFSPFAMSWVRQAPGKGLEWVAKVSPGGSWTYYSDTVTDRFTFSLDTSKSTAYLQMNSLRAEDTAVYYCARQLWGYYALDIWGQGTLVTVSS VL: DIQLTQSPSSLSASVGDRVTITCSASISVSYLYWYQQKPGKAPKLLIYDDSSLASGVPSRFSGSGSGTDFTLTISSLQPEDFATYYCQQWSGYPYTFGQGTKVEIK	1.11	0.00195	1.76e+06
anti-IL-6 antibody, heavy chain I51F, G66D / light chain M32L, M50D, N52S, M88Q (antibody, IgG1, V domains shown, Full IgG1 (Expi293); VL = variant III) VH: EVQLVESGGGLVQPGGSLRLSCAASGFTFSPFAMSWVRQAPGKGLEWVAKFSPGGSWTYYSDTVTDRFTFSLDTSKSTAYLQMNSLRAEDTAVYYCARQLWGYYALDIWGQGTLVTVSS VL: DIQLTQSPSSLSASVGDRVTITCSASISVSYLYWYQQKPGKAPKLLIYDDSSLASGVPSRFSGSGSGTDFTLTISSLQPEDFATYYCQQWSGYPYTFGQGTKVEIK	4.45	0.00611	1.37e+06

Binders with a lower Kd, results first:

Kd [nM]	koff [s⁻¹]	kon [M⁻¹ s⁻¹]	Binder
0.652	0.000912	1.4e+06	anti-IL-6 antibody, heavy chain I51G, G66D / light chain M32L, M50D, N52S, M88Q (antibody, IgG1, V domains shown, Full IgG1 (Expi293); VL = variant III) VH: EVQLVESGGGLVQPGGSLRLSCAASGFTFSPFAMSWVRQAPGKGLEWVAKGSPGGSWTYYSDTVTDRFTFSLDTSKSTAYLQMNSLRAEDTAVYYCARQLWGYYALDIWGQGTLVTVSS VL: DIQLTQSPSSLSASVGDRVTITCSASISVSYLYWYQQKPGKAPKLLIYDDSSLASGVPSRFSGSGSGTDFTLTISSLQPEDFATYYCQQWSGYPYTFGQGTKVEIK
0.575	0.00113	1.96e+06	anti-IL-6 antibody, heavy chain I51Q, G66D / light chain M32L, M50D, N52S, M88Q (antibody, IgG1, V domains shown, Full IgG1 (Expi293); VL = variant III) VH: EVQLVESGGGLVQPGGSLRLSCAASGFTFSPFAMSWVRQAPGKGLEWVAKQSPGGSWTYYSDTVTDRFTFSLDTSKSTAYLQMNSLRAEDTAVYYCARQLWGYYALDIWGQGTLVTVSS VL: DIQLTQSPSSLSASVGDRVTITCSASISVSYLYWYQQKPGKAPKLLIYDDSSLASGVPSRFSGSGSGTDFTLTISSLQPEDFATYYCQQWSGYPYTFGQGTKVEIK
0.0357	5.8e-05	1.63e+06	anti-IL-6 antibody, heavy chain I51R, G66D / light chain M32L, M50D, N52S, M88Q (antibody, IgG1, V domains shown, Full IgG1 (Expi293); VL = variant III) VH: EVQLVESGGGLVQPGGSLRLSCAASGFTFSPFAMSWVRQAPGKGLEWVAKRSPGGSWTYYSDTVTDRFTFSLDTSKSTAYLQMNSLRAEDTAVYYCARQLWGYYALDIWGQGTLVTVSS VL: DIQLTQSPSSLSASVGDRVTITCSASISVSYLYWYQQKPGKAPKLLIYDDSSLASGVPSRFSGSGSGTDFTLTISSLQPEDFATYYCQQWSGYPYTFGQGTKVEIK
0.657	0.00126	1.93e+06	anti-IL-6 antibody, heavy chain S35A, G66D / light chain M32L, M50D, N52S, M88Q (antibody, IgG1, V domains shown, Full IgG1 (Expi293); VL = variant III) VH: EVQLVESGGGLVQPGGSLRLSCAASGFTFSPFAMAWVRQAPGKGLEWVAKISPGGSWTYYSDTVTDRFTFSLDTSKSTAYLQMNSLRAEDTAVYYCARQLWGYYALDIWGQGTLVTVSS VL: DIQLTQSPSSLSASVGDRVTITCSASISVSYLYWYQQKPGKAPKLLIYDDSSLASGVPSRFSGSGSGTDFTLTISSLQPEDFATYYCQQWSGYPYTFGQGTKVEIK
0.609	0.000781	1.28e+06	anti-IL-6 antibody, heavy chain S35G, G66D / light chain M32L, M50D, N52S, M88Q (antibody, IgG1, V domains shown, Full IgG1 (Expi293); VL = variant III) VH: EVQLVESGGGLVQPGGSLRLSCAASGFTFSPFAMGWVRQAPGKGLEWVAKISPGGSWTYYSDTVTDRFTFSLDTSKSTAYLQMNSLRAEDTAVYYCARQLWGYYALDIWGQGTLVTVSS VL: DIQLTQSPSSLSASVGDRVTITCSASISVSYLYWYQQKPGKAPKLLIYDDSSLASGVPSRFSGSGSGTDFTLTISSLQPEDFATYYCQQWSGYPYTFGQGTKVEIK
